The text below walks through data of patent US20120122115A1, “Bacterial quorum sensing biosensor” (priority 2006, published 2012).

The experiment in a line: FRET response of LuxP BAI-2 binding site mutant biosensors to BAI-2. How it is done: Site-directed mutations were carried out using the QuikChange mutagenesis kit (Stratagene). The perGFP plasmid containing the gene encoding the green fluorescent protein (GFP) is used for creating cyan and yellow variants CFP and YFP, respectively. An L221K mutation is introduced into the gene encoding CFP or YFP to reduce the possible level of intermolecular dimerization. Cloning vector pSP72 (Promega) is used for creating 5′ to 3′ end-to-end gene fusions of PCR fragments containing the genes encoding CFP (5′ KpnI/3′ EagI), V. harveyi LuxP (70 to 1095 bp; 5′ EagI/3′ NotI), and YFP (5′ NotI/3′ PstI), generating plasmid pSP72-CLPY. The CLPY gene fusion is removed using the restriction enzymes KpnI and PstI and subcloned into a pQE-30 bacterial expression vector (Qiagen) containing an N-terminal six-His tag, generating plasmid pQE30-CLPY. LuxP BAI-2 binding site mutants pQE30-M2CLPY (Q77A and S79A) and pQE30-M3CLPY (Q77A, S79A, and W82F) are created using pQE30-CLPY as a template and confirmed by DNA sequence analysis.
The YFP or CFP fluorescence response of wild-type and mutant forms of CLPY (1.0 mL, 0.015 mg/mL) to different ligands is measured 5 minutes after addition of the ligand to the protein at room temperature. No time-dependent changes in the CLPY FRET ratio are observed after incubation for 5 minutes. […]

B1: M3CLPY: CLPY with LuxP BAI-2 binding site mutations Q77A, S79A, and W82F (protein)
chain: MRGSHHHHHHGSACELGTMKGEELFTGVVPILVELDGDVNGHKFSVSGEGEGDATYGKLTLKFICTTGKLPVPWPTLVTTLTWGVQCFSRYPDHMKQHDFFKSAMPEGYVQQRTIFFKDDGNYKTRAEVKFEGDTLVNRIELKGIDFKEDGNILGHKLEYNYISHNVYITADKQKNGIKANFKIRHNIEDGSVQLADHYQQNTPIGDGPVLLPDNHYLSIQSALSKDPNEKRDHMVLKEFVTAAGITHGMDELYTADGVLNGYWGYQEFLDEFPEQRNLTNALSEAVRAQPVPLSKPTQRPIKISVVYPGQAVADYFVRNIASFEKRLYKLNINYQLNQVFTRPNADIKQQSLSLMEALKSKSDYLIFTLDTTRHRKFVEHVLDSTNTKLILQNITTPVREWDKHQPFLYVGFDHAEGSRELATEFGKFFPKHTYYSVLYFSEGYISDVRGDTFIHQVNRDNNFELQSAYYTKATKQSGYDAAKASLAKHPDVDFIYACSTDVALGAVDALAELGREDIMINGWGGGSAELDAIQKGALDITVMRMNDDTGIAMAEAIKWDLEDKPVPTVYSGDFEIVTKADSPERIEALKKRAFRYSDNGGAAAKGEELFTGVVPILVELDGDVNGHKFSVSGEGEGDATYGKLTLYFICTTGKLPVPWPTLVTTLGYGLKCFARYPDHMKQHDFFKSAMPEGYVQERTIFFKDDGNYKTRAEVKFEGDTLVNRIELKGIDFKEDGNILGHKLEYNYNSHNVYIMADKQKNGIKVNFKIRHNIEDGSVQLADHYQQNTPIGDGPVLLPDNHYLSYQSALSKDPNEKRDHMVLKEFVTAAGITHGMDELYK
As to B1, the “FRET response to BAI-2 (qualitative)” value (following addition of BAI-2, compared to wild-type CLPY) is “insensitive to BAI-2”. In addition, the “FRET response relative to the wild-type biosensor” value (supersaturating BAI-2 (10 μM)) was determined as 18%.
